The target in this test is T1, CD20 (human) (UniProt P11836).
T1 sequence (looked up): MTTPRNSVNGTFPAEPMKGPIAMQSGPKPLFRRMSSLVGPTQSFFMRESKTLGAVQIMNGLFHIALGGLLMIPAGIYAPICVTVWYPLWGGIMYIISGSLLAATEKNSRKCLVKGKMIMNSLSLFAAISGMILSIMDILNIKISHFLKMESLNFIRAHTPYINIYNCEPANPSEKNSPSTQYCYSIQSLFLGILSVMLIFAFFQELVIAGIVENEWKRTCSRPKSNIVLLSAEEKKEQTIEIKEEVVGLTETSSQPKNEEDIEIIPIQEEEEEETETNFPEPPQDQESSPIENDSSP
Description: cell-based or functional assay.

B1: anti-CD20 Leu-16 monoclonal antibody (antibody, from another filing, V domains shown)
VH: EVQLQQSGAELVKPGASVKMSCKASGYTFTSYNMHWVKQTPGQGLEWIGAIYPGNGDTSYNQKFKGKATLTADKSSSTAYMQLSSLTSEDSADYYCARSNYYGSSYWFFDVWGAGTTVTVSS
VL: DIVLTQSPAILSASPGEKVTMTCRASSSVNYMDWYQKKPGSSPKPWIYATSNLASGVPARFSGSGSGTSYSLTISRVEAEDAATYYCQQWSFNPPTFGGGTKLEIK
B1 displayed a decrease of IL-2 concentration in supernatants of Jurkat transfectants co-cultured with LCL of 60%.
